Experiments:
[1] = target: T1, FcεRII (CD23) on IM9 cells (human) (UniProt P06734); test: FACS, 5 ug/ml, IM9 cells
T1 sequence (looked up): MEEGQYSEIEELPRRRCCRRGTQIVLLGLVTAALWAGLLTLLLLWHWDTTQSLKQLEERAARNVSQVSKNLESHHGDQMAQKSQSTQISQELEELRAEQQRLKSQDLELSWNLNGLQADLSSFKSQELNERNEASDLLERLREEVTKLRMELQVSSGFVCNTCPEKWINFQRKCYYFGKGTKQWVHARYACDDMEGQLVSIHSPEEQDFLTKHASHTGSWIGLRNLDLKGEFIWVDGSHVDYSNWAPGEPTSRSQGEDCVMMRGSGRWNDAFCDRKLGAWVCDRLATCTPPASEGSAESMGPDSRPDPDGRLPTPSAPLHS

[2] = target: T1, FcεRII (CD23) on IM9 cells (human); test: FACS, 10 ug/ml, IM9 cells
[3] = target: T1, FcεRII (CD23) on IM9 cells (human); test: FACS, 0.1 ug/ml, IM9 cells
[4] = target: T1, FcεRII (CD23) on IM9 cells (human); test: FACS, 0.5 ug/ml, IM9 cells
[5] = target: FcεRI alpha chain on CHO 3D10 cells (UniProt P12319); test: FACS, 5 ug/ml, CHO 3D10 cells
FcεRI alpha chain on CHO 3D10 cells, sequence (P12319 26-257 limits assumed): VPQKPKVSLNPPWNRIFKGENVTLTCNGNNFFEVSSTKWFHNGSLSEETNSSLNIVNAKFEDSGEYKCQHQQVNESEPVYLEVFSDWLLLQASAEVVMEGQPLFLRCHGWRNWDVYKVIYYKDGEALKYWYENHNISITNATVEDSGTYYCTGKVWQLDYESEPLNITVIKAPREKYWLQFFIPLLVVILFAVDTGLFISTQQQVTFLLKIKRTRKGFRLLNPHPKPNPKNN

[6] = target: FcεRI alpha chain on CHO 3D10 cells (UniProt P12319); test: FACS, 10 ug/ml, CHO 3D10 cells
[7] = target: FcεRI alpha chain on CHO 3D10 cells (UniProt P12319); test: FACS, 0.1 ug/ml, CHO 3D10 cells
[8] = target: FcεRI alpha chain on CHO 3D10 cells (UniProt P12319); test: FACS, 0.5 ug/ml, CHO 3D10 cells
[9] = target: T1, FcεRII (CD23) on IM9 cells (human); test: FACS, 1.65 ug/ml, IM9 cells
[10] = target: FcεRI alpha chain on CHO 3D10 cells (UniProt P12319); test: FACS, 1.65 ug/ml, CHO 3D10 cells

human IgE (U266 IgE), sequence (P01854 whole entry): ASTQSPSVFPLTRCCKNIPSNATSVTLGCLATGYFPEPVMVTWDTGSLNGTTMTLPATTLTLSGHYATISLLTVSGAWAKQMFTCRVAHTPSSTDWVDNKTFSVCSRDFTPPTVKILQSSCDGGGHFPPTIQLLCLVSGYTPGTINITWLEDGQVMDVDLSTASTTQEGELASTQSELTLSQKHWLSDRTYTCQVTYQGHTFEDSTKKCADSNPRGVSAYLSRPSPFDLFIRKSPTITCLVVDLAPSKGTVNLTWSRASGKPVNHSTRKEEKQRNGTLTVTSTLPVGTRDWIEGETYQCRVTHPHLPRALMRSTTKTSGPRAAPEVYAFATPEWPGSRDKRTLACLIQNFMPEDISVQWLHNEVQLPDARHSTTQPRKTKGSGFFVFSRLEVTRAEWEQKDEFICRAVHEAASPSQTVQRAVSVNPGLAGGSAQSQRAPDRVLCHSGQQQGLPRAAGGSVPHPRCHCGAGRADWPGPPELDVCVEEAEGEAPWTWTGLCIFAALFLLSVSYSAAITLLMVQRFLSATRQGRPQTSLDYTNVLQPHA
human IgE mutant 6 (β-strand D exchanged), sequence (P01854 other isoform, or with tags, fused parts or gaps, change not shown): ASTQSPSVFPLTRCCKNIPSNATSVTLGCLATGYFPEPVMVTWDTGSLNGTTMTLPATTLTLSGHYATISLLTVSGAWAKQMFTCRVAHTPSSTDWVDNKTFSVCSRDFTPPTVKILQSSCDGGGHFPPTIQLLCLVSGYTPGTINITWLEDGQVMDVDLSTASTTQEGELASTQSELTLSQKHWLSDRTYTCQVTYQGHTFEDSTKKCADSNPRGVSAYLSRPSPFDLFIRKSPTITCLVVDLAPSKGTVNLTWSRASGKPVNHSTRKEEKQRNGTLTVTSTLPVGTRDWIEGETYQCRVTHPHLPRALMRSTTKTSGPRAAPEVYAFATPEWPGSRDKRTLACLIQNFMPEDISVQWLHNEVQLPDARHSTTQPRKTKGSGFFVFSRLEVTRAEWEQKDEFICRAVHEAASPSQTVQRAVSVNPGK
human IgE mutant 11 (Q455A, R457A, T459A), sequence (P01854 other isoform, or with tags, fused parts or gaps, stated change not applied): as the sequence (P01854 other isoform, or with tags, fused parts or gaps, change not shown) above
human IgE mutant 1 (loop AB exchanged for human IgG1 loop), sequence (P01854 other isoform, or with tags, fused parts or gaps, change not shown): as above
human IgE mutant 8 (T387A, T389A), sequence (P01854 other isoform, or with tags, fused parts or gaps, stated change not applied): as the sequence (P01854 other isoform, or with tags, fused parts or gaps, change not shown) above
human IgE mutant 7 (383-385 RKS to AAA), sequence (P01854 other isoform, or with tags, fused parts or gaps, change not shown): as above
human IgE mutant 13 (Fcε2: 329-331 and 334-336 to Ala), sequence (P01854 other isoform, or with tags, fused parts or gaps, change not shown): as above
human IgE mutant 12 (S471A, T473A), sequence (P01854 other isoform, or with tags, fused parts or gaps, stated change not applied): as the sequence (P01854 other isoform, or with tags, fused parts or gaps, change not shown) above
human IgE mutant 4 (loop EF exchanged), sequence (P01854 other isoform, or with tags, fused parts or gaps, change not shown): as above
human IgE mutant 10 (T438A, T440A), sequence (P01854 other isoform, or with tags, fused parts or gaps, stated change not applied): as the sequence (P01854 other isoform, or with tags, fused parts or gaps, change not shown) above
human IgE mutant 3 (loop CD exchanged), sequence (P01854 other isoform, or with tags, fused parts or gaps, change not shown): as above
human IgE mutant 2 (loop BC exchanged), sequence (P01854 other isoform, or with tags, fused parts or gaps, change not shown): as above
human IgE mutant 5 (loop FG exchanged), sequence (P01854 other isoform, or with tags, fused parts or gaps, change not shown): as above
human IgE mutant 9 (N403A, T405A), sequence (P01854 other isoform, or with tags, fused parts or gaps, stated change not applied): as the sequence (P01854 other isoform, or with tags, fused parts or gaps, change not shown) above

| Substance | % IM9 (+) [9] | % CHO 3D10 (+) [10] | other results |
| --- | --- | --- | --- |
| human IgE (U266 IgE) (from UniProt P01854 1-546) (antibody) | – | – | % IM9 (+) [1]: 82.6%; % IM9 (+) [2]: 92.5%; % IM9 (+) [3]: 1.7%; % IM9 (+) [4]: 4.6%; % CHO 3D10 (+) [5]: 89.9%; % CHO 3D10 (+) [6]: 90.3%; % CHO 3D10 (+) [7]: 15.8%; % CHO 3D10 (+) [8]: 59.6% |
| human IgE mutant 1 (loop AB exchanged for human IgG1 loop) (from UniProt P01854 1-428) (antibody) | 4.3% | 1.7% | – |
| human IgE mutant 4 (loop EF exchanged) (from UniProt P01854 1-428) (antibody) | 9.2% | 4.9% | – |
| human IgE mutant 5 (loop FG exchanged) (from UniProt P01854 1-428) (antibody) | 73.9% | 60.5% | – |
| human IgE mutant 6 (β-strand D exchanged) (from UniProt P01854 1-428) (antibody) | 71.6% | 1.4% | – |
| human IgE mutant 7 (383-385 RKS to AAA) (from UniProt P01854 1-428) (antibody) | 4.6% | 76.4% | – |
| human IgE mutant 8 (T387A, T389A) (from UniProt P01854 1-428) (antibody) | 16.3% | 70.3% | – |
| human IgE mutant 10 (T438A, T440A) (from UniProt P01854 1-428) (antibody) | 84.8% | 67.5% | – |
| human IgE mutant 11 (Q455A, R457A, T459A) (from UniProt P01854 1-428) (antibody) | 61.5% | 70.8% | – |
| human IgE mutant 12 (S471A, T473A) (from UniProt P01854 1-428) (antibody) | 90.3% | 84.7% | – |
| human IgE mutant 13 (Fcε2: 329-331 and 334-336 to Ala) (from UniProt P01854 1-428) (antibody) | 96.1% | 85.7% | – |

Further lines, with some results ahead:

| % IM9 (+) [9] | % CHO 3D10 (+) [10] | Substance | other results |
| --- | --- | --- | --- |
| 48.9% | 34.3% | human IgE mutant 2 (loop BC exchanged) (from UniProt P01854 1-428) (antibody) | – |
| 1.2% | 32.3% | human IgE mutant 3 (loop CD exchanged) (from UniProt P01854 1-428) (antibody) | – |
| 94.3% | 84.2% | human IgE mutant 9 (N403A, T405A) (from UniProt P01854 1-428) (antibody) | – |

Source: patent US20030044858A1
